Source: paper PMC6176016 (2018)

T1: FLAG-tagged multimerized MegaAPRIL
T1 chain: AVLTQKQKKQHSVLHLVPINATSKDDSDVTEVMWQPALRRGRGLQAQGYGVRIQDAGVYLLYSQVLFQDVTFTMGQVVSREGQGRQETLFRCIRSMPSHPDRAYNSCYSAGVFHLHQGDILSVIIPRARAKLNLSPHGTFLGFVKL


Tests used:
[1] = target: T1, FLAG-tagged multimerized MegaAPRIL; assay: MST
[2] = target: BAFF (as used in microscale thermophoresis) (UniProt Q9Y275 134-285); assay: MST

Kd [1]	Kd [2]	Binder
567 nM	1080 nM	FLAG-TACI-L (receptor, for MST only: fluorescently labeled at the N-terminus (Monolith NT Protein Labeling Kit RED-NHS)) MSGLGRSRRGGRSRVDQEERFPQGLWTGVAMRSCPEEQYWDPLLGTCMSCKTICNHQSQRTCAAFCRSLSCRKEQGKFYDHLLRDCISCASICGQHPKQCAYFCENKLRSPVNLPPELRRQRSGEVENNSDNSGRYQGLEHRGSEASPALPGLKLSADQVALVYSTLGLCLCAVLCCFLVAVACFLKKRGDPCSCQPRSRPRQSPAKSSQDHAMEAGSPVSTSPEPVETCSFCFPECRAPTQESAVTPGTPDPTCAGRWGCHTRTTVLQPCPHIPDSGLGIVCVPAQEGGPGA
185 nM	586 nM	FLAG-tagged TACI-S, purified recombinant (receptor, fluorescently labeled at the N-terminus (Monolith NT Protein Labeling Kit RED-NHS)) MSGLGRSRRGGRSRVDQEERWSLSCRKEQGKFYDHLLRDCISCASICGQHPKQCAYFCENKLRSPVNLPPELRRQRSGEVENNSDNSGRYQGLEHRGSEASPALPGLKLSADQVALVYSTLGLCLCAVLCCFLVAVACFLKKRGDPCSCQPRSRPRQSPAKSSQDHAMEAGSPVSTSPEPVETCSFCFPECRAPTQESAVTPGTPDPTCAGRWGCHTRTTVLQPCPHIPDSGLGIVCVPAQEGGPGA
